In series [1] the target is T1, thrombin (UniProt P00734;P00734 328-363;364-622). As to the kind of experiment: EMSA (agarose gel, SYBR Gold); aptamer polymer/thrombin 1/10; Nanogels generated in PBS; buffer, pH and temperature of thrombin binding assays not in the material (section 2.5 text missing). In general terms: In EMSA bound probe runs differently from free probe, usually more slowly.
The target in the next series is albumin (BSA) (bovine, UniProt P02769 25-607). Nature of the series: EtBr fluorescence (duplex displacement); EtBr-loaded nanogel; Nanogels generated in PBS; buffer, pH and temperature of thrombin binding assays not in the material (section 2.5 text missing). To be noted: label: EtBr intercalated; 11 bp GCTCCGGTTGG/CCAACCGGAGC; 5' overhangs 7 nt T (aptaDNA) and 12 nt T (coDNA); 3' overhang 9 nt TGTGGTTGG (aptaDNA).
Sequence of albumin (BSA) (P02769 25-607): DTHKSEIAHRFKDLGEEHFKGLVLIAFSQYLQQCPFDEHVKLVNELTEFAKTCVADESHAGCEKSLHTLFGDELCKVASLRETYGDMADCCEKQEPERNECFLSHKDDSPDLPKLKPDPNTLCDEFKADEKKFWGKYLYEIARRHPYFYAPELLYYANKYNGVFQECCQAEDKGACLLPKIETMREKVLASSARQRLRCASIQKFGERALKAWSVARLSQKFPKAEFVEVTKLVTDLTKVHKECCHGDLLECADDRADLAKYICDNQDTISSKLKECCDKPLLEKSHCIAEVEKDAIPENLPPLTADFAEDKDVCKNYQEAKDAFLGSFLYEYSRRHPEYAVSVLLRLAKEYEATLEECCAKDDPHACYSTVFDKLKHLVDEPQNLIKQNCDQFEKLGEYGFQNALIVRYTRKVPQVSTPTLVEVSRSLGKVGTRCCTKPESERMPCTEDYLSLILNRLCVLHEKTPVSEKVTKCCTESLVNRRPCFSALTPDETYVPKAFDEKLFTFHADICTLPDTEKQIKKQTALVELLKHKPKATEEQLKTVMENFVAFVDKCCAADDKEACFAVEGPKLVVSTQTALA

Series [2] addresses T1, thrombin. As to the kind of experiment: EtBr fluorescence decrease (duplex displacement); EtBr-loaded nanogel; concentration dependent; Nanogels generated in PBS; buffer, pH and temperature of thrombin binding assays not in the material (section 2.5 text missing).

Here are results for two molecules from PMC5101909, “Crosslinked duplex DNA nanogels that target specified proteins”.

For TTTTTTTGCTCCGGTTGGTGTGGTTGG (structured_DNA, 5'-acrydite copolymerized with MPC (MPC/oligo 38/1)) [P(MPC/aptaDNA)], the binding result with thrombin [1] is “binds”.

B1: P(MPC/aptaDNA)/P(MPC/coDNA) nanogel (mixed)
DNA 1: TTTTTTTGCTCCGGTTGGTGTGGTTGG
DNA 2: TTTTTTTTTTTTCCAACCGGAGC
modifications: 5'-acrydite of both strands copolymerized with MPC (38/1 and 45/1)
On to B1, for which the binding result was “no binding” in the series with albumin (BSA) and “binds” with thrombin [2].
